Results: US20040009166A1

Columns and labels:
[1] = target: Recombinant human TNF-alpha (Pierce, cat # RTNFA50) (human) (UniProt P01375); assay: SPR (BiaCore X), rhTNF-alpha immobilized on CM5 chip, SCA as analyte, 1:1 fit
[2] = target: Recombinant human TNF-alpha (Pierce, cat # RTNFA50) (human) (UniProt P01375); assay: cell-based or functional assay

Sequence of UniProt P01375 (P01375 whole entry, form in doubt): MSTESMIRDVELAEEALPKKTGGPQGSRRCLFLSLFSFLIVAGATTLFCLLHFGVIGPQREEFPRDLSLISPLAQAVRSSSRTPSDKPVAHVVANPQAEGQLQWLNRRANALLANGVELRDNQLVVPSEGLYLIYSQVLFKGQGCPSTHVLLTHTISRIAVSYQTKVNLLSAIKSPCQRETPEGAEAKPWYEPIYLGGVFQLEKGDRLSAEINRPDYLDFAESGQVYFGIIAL

Row | Substance | Ka [1] | Kd [1] | koff [1] | kon [1] | IC50 Values (cell rescue of WEHI-13VAR cells from TNF-alpha) [2] | IC50, TNF-sensitive cell rescue assay, after 5 cycles of freeze-thaw [2] | IC50, TNF-sensitive cell rescue assay, after 10 cycles of freeze-thaw [2] | IC50 values (to rescue 50% WEHI-13VAR cells from killing by 1.0 ng/ml TNF) [2]
1 | 2-7-SC-7 SCA (D2E7 SCA, VH-(GGGGS)3-VL-his6, Cys at linker position 2), native (scFv) | 1.19e+10 M⁻¹ | 0.0843 nM | 2.96e-06 s⁻¹ | 35100 M⁻¹ s⁻¹ | – | – | – | –
2 | 2-7-SC-5 SCA (D2E7 SCA, VL-218-VH-his6, Cys at linker position 2), native (scFv) | 1.55e+10 M⁻¹ | 0.0644 nM | 1.12e-05 s⁻¹ | 173000 M⁻¹ s⁻¹ | 4.18 nM | – | – | –

Further substances by falling Kd [1], results first:

Row | Ka [1] | Kd [1] | koff [1] | kon [1] | IC50 Values (cell rescue of WEHI-13VAR cells from TNF-alpha) [2] | IC50, TNF-sensitive cell rescue assay, after 5 cycles of freeze-thaw [2] | IC50, TNF-sensitive cell rescue assay, after 10 cycles of freeze-thaw [2] | Substance | IC50 values (to rescue 50% WEHI-13VAR cells from killing by 1.0 ng/ml TNF) [2]
3 | 1.1e+08 M⁻¹ | 9.05 nM | 0.000416 s⁻¹ | 46400 M⁻¹ s⁻¹ | – | – | – | 2-7-SC-3 SCA (D2E7 SCA, VH-(GGGGS)3-VL-his6, C-terminus Cys), native (scFv) | –
4 | 5.49e+08 M⁻¹ | 1.82 nM | 0.000495 s⁻¹ | 272000 M⁻¹ s⁻¹ | 7.18 nM | – | – | 2-7-SC-4 SCA (D2E7 SCA, VL-218-VH, no his tag, C-terminus Cys), native (scFv) | –
5 | 8.36e+08 M⁻¹ | 1.2 nM | 0.000392 s⁻¹ | 328000 M⁻¹ s⁻¹ | – | 225 nM | 0.302 µg/mL | 2-7-SC-2 SCA (D2E7 SCA, VL-218-VH-his6, C-terminus Cys), native (scFv) | 3.05 nM
